These are literature values, as cited in patent US20170136096A1, “Insulin-Containing Prolonged-Action Preparation” (OBSCHESTVO S OGRANCHENNOJ OTVETCTVENNOSTU "BIOSABTEK", priority 2014, published 2017).

The conditions of the data set: administered under the skin, injection solution pH 4.

Bounds are passed on as bounds.

Consider glargine, for which the “duration of flat time-concentration profile” value was at most 24 h.
